For series [1], the target named is Kv channel auxiliary β subunit (rat) (UniProt P62483). Put plainly: negative staining electron microscopy; Kv chimera in lipid nanodiscs diluted to ~0.03 mg/ml, 0.7% uranyl formate; 2D class averages.
The target is the same in series [2]. Kind of series: cryo-EM structure; Kv chimera α4β4 complex in MSP1E3D1 lipid nanodiscs (3:1:1 POPC:POPG:POPE); 0.7 mg/ml in 20 mM HEPES-KOH pH 7.5, 150 mM KCl, 2 mM TCEP; gold grids; C4 symmetry imposed.
Series [3] concerns the molecule itself. The series is described as above.

What is called stoichiometry N is the number of molecules, sites or subunits per partner or assembly.

With “Kv channel auxiliary β subunit (from UniProt P62483 36-367) (natural protein)”, the stoichiometry N in series [1] and in series [2] was 4 each time.

B1: Kv1.2–2.1 paddle chimera channel, α subunit (other)
chain: MTVATGDPVDEAAAHPGHPQDTYDPEADHECCERVVINISGLRFETQLKTLAQFPETLLGDPKKRMRYFDPLRNEYFFDRNRPSFDAILYYYQSGGRLRRPVNVPLDIFSEEIRFYELGEEAMEMFREDEGYIKEEERPLPENEFQRQVWLLFEYPESSGPARIIAIVSVMVILISIVSFCLETLPIFRDENEDMHGGGVTFHTYSQSTIGYQQSTSFTDPFFIVETLCIIWFSFEFLVRFFACPSKAGFFTNIMNIIDIVAIIPYYVTIFLTESNKSVLQFQNVRRVVQIFRIMRILRIFKLSRHSKGLQILGQTLKASMRELGLLIFFLFIGVILFSSAVYFAEADERDSQFPSIPDAFWWAVVSMTTVGYGDMVPTTIGGKIVGSLCAIAGVLTIALPVPVIVSNFNYFYHRETEGEEQAQYLQVTSCPKIPSSPDLKKSRSASTISKSDYMEIQEGVNNSNEDFREENLKTANCTLANTNYVNITKMLTDV
Regarding B1, the “stoichiometry N” value in series [3] worked out at 4.

The values above are taken from article PMC6093707, “Single-particle cryo-EM structure of a voltage-activated potassium channel in lipid nanodiscs” (eLife, 2018).
